Experimental data: publication PMC8509923

Target: T1, Upc2A DNA-binding domain (Candida glabrata) (UniProt Q6FX18)
T1 sequence: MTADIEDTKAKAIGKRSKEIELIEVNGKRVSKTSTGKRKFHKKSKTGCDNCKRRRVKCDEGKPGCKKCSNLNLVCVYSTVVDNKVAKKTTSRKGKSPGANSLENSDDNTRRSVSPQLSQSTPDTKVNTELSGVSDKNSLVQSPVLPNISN
Test: DNase I footprinting
Settings: 5' amino-MC6 on reverse strand

Sequence: ACTGCCACACAGAAGAGCAGCGGGACTACCGGAACACGATTAGCCTTCGTTTACATGTTGGCAAACCCAGGACATAGATCAGAGTGTATTACATTAGCACAGACCGGCCGTGGGTAAGTTTTTCCTGACTAAAATGGCCGCAGCTGCAAGTCCACGGAATATTTCCCTTTTTTGCTCGATAAGTTGTAC (double strand) [CDR1 promoter DNase I probe]
- binding: binds
